Consider one substance from publication PMC10911789.

pKd: −log10 of the molar value.

For this experiment, the target named is recombinant spike glycoprotein RBD from SARS-CoV-2 (BEI Resources NR-52366) (SARS-CoV-2) (UniProt P0DTC2). As to the kind of experiment: BLI.

Chain of recombinant human GAPDH (glyceraldehyde-3-phosphate dehydrogenase), P04406 1-335 (enzyme; other documents disagree on this pair) (P04406 whole entry): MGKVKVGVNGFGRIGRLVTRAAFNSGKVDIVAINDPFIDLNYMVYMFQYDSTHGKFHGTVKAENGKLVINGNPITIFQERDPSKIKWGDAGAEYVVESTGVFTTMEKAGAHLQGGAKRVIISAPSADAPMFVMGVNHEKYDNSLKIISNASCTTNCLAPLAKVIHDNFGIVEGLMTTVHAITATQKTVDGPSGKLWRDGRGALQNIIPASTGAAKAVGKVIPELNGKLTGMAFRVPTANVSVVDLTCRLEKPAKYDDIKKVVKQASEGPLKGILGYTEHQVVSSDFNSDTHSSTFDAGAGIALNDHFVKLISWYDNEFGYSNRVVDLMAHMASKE

As for “recombinant human GAPDH (glyceraldehyde-3-phosphate dehydrogenase), P04406 1-335 (enzyme; other documents disagree on this pair)”, the pKd (as a rule, the negative decadic logarithm of the Kd, by convention in mol/L) is 7.93.
